Data as given in paper doi:10.1101/2020.05.01.070730 (bioRxiv, 2020).
Where a chain is given by its changes, count along the chain named. Like-named read-outs stand apart in the source and are kept apart here.

T1: MutS (Pseudomonas aeruginosa, UniProt Q9HY08 1-855)
T1 sequence: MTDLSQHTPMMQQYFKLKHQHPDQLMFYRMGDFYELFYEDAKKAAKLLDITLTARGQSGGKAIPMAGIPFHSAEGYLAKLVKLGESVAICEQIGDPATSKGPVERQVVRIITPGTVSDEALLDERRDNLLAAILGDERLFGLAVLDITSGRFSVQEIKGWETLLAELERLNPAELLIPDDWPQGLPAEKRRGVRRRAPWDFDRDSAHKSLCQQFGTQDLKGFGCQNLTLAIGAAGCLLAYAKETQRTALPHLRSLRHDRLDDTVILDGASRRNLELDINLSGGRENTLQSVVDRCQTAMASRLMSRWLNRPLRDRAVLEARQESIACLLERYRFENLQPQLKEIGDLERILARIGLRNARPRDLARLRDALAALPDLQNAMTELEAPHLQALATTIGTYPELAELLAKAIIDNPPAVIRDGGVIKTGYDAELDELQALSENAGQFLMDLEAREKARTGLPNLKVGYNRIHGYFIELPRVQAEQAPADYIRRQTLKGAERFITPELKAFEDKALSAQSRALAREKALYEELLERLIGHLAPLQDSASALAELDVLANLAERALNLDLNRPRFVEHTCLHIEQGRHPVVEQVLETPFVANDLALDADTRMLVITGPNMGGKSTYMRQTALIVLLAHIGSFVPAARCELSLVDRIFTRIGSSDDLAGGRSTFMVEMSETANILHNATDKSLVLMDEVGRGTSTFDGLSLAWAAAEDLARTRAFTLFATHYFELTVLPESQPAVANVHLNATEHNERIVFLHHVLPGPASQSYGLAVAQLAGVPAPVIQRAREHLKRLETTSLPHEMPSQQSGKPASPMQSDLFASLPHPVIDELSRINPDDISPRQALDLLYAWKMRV

T2: MutS E. coli (Escherichia coli, UniProt P23909 1-853)
T2 sequence: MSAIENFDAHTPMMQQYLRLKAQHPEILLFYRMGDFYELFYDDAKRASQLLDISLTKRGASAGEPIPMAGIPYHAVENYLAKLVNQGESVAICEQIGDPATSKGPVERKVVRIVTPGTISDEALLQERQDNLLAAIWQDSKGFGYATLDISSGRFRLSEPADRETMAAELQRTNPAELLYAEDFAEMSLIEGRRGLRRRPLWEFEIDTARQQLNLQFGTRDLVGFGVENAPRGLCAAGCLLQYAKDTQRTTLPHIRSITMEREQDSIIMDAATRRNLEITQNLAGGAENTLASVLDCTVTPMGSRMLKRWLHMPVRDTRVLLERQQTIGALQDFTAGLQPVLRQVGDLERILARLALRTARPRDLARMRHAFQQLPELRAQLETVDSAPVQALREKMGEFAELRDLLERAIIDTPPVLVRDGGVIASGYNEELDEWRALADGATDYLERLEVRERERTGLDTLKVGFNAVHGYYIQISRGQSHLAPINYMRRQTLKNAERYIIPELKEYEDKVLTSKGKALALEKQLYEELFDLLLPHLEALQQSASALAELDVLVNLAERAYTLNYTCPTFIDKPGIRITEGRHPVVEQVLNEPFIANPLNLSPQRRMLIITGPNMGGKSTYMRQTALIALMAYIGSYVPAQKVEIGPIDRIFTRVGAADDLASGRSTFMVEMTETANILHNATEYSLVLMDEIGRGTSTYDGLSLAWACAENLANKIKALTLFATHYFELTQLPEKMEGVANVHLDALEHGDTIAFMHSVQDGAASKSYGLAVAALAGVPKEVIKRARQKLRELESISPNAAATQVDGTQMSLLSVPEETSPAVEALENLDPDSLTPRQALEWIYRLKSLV

B1: GT-pDNA (GT 8 nt from 3'-OH) (dsDNA)
DNA 1: ATGTGAATCAGTATGGTTGCTATCTGC
DNA 2: ATTTCCTTCAGCAGATAGTAACCATACTGATTCACAT
B2: pDNA (AT) (dsDNA)
DNA 1: ATGTGAATCAGTATGGTTACTATCTGC
DNA 2: B1 DNA 2
B3: GT-dsDNA (GT 18 nt from 3' end) (dsDNA)
DNA 1: ATGTGAATCAGTATGGTTGCTATCTGCTGAAGGAAAT
DNA 2: B1 DNA 2
B4: dsDNA (dsDNA)
DNA 1: B3 DNA 1 with G19A
DNA 2: B1 DNA 2

What was measured:
MutS [1] = molecular target: T1, MutS; test: EMSA
MutS E. coli [2] = molecular target: T2, MutS E. coli; test: native PAGE shift
MutS [3] = molecular target: T1, MutS; test: SPR
MutS E. coli [4] = molecular target: T2, MutS E. coli; test: native PAGE shift; remark: listed apart in the source

Row | Binder | Kd (MutS [1]) | binding result (MutS E. coli [2]) | Kd (MutS [3]) | binding result (MutS E. coli [4])
1 | B1 | 20 ± 0.1 nM | binds |  | 
2 | B2 | 50.7 ± 2.3 nM |  |  | 
3 | B3 | 35 ± 0.9 nM |  | 118 ± 8.9 nM | binds
4 | B4 | 331 ± 15.9 nM |  |  | 
